US20170129926A1 (ABCLON, published 2017)
Where two headings read alike, the source gives them in different places.

Assays:
Experiment in all cases: cell-based or functional assay
human IL-6Rα = molecular target: T1, human IL-6Rα (human, UniProt P08887 20-358)
T1 sequence (looked up): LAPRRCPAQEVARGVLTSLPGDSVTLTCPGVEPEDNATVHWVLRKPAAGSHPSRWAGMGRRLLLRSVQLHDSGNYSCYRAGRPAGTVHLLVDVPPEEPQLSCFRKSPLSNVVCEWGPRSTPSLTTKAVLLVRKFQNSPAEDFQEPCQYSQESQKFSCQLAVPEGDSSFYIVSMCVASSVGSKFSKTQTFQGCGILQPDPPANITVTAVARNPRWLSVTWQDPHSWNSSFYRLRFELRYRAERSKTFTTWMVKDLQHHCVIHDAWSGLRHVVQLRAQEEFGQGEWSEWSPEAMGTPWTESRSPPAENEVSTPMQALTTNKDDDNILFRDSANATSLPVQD

[1] = molecular target: T2, cell surface IL-6 receptor (TF-1 cells) (human, UniProt P08887 20-468)
T2 sequence (looked up): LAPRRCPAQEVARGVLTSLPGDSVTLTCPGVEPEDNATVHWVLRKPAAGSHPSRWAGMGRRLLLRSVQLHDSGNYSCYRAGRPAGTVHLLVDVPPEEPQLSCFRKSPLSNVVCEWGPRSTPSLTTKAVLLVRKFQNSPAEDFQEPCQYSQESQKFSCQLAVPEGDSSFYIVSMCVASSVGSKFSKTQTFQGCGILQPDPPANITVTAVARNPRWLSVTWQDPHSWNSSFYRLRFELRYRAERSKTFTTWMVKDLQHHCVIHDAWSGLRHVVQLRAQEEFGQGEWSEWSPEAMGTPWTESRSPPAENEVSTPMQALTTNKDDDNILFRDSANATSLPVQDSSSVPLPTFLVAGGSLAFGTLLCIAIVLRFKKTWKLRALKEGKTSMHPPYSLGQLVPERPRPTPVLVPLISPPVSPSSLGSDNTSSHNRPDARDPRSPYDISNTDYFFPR

[2] = molecular target: T2, cell surface IL-6 receptor (TF-1 cells); remark: listed apart in the source

B1: tocilizumab (antibody, V domains shown)
VH: QVQLQESGPGLVRPSQTLSLTCTVSGYSITSDHAWSWVRQPPGRGLEWIGYISYSGITTYNPSLKSRVTMLRDTSKNQFSLRLSSVTAADTAVYYCARSLARTTAMDYWGQGSLVTVSS
VL: DIQMTQSPSSLSASVGDRVTITCRASQDISSYLNWYQQKPGKAPKLLIYYTSRLHSGVPSRFSGSGSGTDFTFTISSLQPEDIATYYCQQGNTLPYTFGQGTKVEIKR
- IC50, IL-6 trans-signaling (MCP-1 secretion by HUVECs) (human IL-6Rα): ~5 nM
- IC50, IL-6 dependent growth of TF-1 cells [1]: 0.3 nM
- IC50, IL-6 dependent growth of TF-1 cells [2]: 0.41 nM
